Test results reported in US20240366778A1 (CSPC MEGALITH BIOPHARMARCEUTICAL, published 2024).

T1: Human Nectin-4 Protein, His Tag (human, UniProt Q96NY8 32-349)
T1 construct: not shown: His tag
T1 sequence (looked up): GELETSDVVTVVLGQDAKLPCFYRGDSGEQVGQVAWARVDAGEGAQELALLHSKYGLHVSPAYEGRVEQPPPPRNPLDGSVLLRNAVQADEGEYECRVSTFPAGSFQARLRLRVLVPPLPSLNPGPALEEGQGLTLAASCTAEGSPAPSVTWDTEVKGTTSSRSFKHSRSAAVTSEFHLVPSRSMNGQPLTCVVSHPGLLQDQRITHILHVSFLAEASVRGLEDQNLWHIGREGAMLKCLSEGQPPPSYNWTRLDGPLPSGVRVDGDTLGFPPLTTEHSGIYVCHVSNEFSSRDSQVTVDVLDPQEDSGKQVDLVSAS

T2: Cynomolgus Nectin-4 Protein, His Tag (cynomolgus, UniProt A0A2K5WES1 32-349)
T2 construct: not shown: His tag
T2 sequence: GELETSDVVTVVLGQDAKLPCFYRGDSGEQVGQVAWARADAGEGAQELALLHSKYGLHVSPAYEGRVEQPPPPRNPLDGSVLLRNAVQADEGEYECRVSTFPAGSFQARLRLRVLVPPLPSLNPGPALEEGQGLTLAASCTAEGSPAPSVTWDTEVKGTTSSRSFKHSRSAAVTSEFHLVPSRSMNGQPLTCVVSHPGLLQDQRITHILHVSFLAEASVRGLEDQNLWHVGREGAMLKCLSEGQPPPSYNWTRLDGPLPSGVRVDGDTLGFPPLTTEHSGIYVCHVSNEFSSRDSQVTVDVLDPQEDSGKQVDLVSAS

T3: Mouse Nectin-4 Protein, His Tag (mouse, UniProt Q8R007 31-347)
T3 construct: not shown: His tag
T3 sequence (looked up): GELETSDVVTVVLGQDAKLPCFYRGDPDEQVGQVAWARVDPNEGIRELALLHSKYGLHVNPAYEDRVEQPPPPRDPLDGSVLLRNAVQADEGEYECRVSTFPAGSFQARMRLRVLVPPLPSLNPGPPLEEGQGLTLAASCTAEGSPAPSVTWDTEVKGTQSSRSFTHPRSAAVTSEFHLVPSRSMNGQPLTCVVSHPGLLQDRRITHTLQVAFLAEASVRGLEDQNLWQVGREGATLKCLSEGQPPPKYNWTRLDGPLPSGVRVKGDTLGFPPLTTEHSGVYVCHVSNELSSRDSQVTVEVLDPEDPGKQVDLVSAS

T4: Recombinant Rat Nectin-4 His-tag Protein, CF (rat, UniProt D3ZET1 31-348)
T4 construct: not shown: His tag
T4 sequence: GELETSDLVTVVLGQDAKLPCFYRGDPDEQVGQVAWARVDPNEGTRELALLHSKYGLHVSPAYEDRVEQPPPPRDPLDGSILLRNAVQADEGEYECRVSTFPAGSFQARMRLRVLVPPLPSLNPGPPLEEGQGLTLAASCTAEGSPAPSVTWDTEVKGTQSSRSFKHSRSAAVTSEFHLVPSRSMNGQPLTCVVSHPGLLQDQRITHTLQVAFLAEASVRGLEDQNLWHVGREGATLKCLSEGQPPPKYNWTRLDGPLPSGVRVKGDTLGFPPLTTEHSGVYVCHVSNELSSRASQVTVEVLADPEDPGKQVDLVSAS

T5: Recombinant Rat Nectin-4 His-tag Protein, CF (rat) (UniProt D3ZET1)
T5 sequence: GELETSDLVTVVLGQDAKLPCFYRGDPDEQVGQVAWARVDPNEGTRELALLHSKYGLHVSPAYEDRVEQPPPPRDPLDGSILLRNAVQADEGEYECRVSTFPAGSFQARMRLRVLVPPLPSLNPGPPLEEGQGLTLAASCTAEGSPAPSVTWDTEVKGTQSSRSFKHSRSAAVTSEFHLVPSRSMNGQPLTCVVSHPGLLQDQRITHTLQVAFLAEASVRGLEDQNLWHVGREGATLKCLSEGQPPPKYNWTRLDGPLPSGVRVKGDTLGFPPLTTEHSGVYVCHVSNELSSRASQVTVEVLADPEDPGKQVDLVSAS


Legend:
[1] = molecular target: T1, Human Nectin-4 Protein, His Tag; test: BLI (Fortebio), antibody with human Nectin-4 protein
Method: In this experiment, Fortebio was used to detect the affinity of Nectin-4 humanized antibodies to human Nectin-4 protein. After the Nectin-4 protein was incubated with the anti-Nectin-4 antibody sample, the signal value was detected by Fortebio to analyze the affinity of the sample to human Nectin-4. […] The chimeric antibodies were engineered on the basis of mouse-derived antibodies, and the constant region is selected from human IgG1.

[2] = molecular target: T1, Human Nectin-4 Protein, His Tag; test: ELISA, Nectin-4 protein with antibody dilutions, goat anti-human IgG secondary antibody
Method: (§1) The affinities of Nectin-4 humanized antibodies to Nectin-4 proteins of different species were performed by ELISA. Nectin-4 proteins of different species (human Nectin-4, cynomolgus Nectin-4, rat Nectin-4, mouse Nectin-4) were incubated with Nectin-4 humanized antibody samples of different concentrations, and then incubated with the secondary antibody which binds IgG (Goat anti-Human IgG (H+L) Cross-Adsorbed Secondary Antibody. The signal values of different concentrations were detected by ELISA to analyze the affinities of the samples to Nectin-4 proteins of different species. The experimental results are shown in Table 6, showing that the Nectin-4 humanized antibodies have good affinity for human, rat and cynomolgus Nectin-4 proteins.

[3] = molecular target: T2, Cynomolgus Nectin-4 Protein, His Tag; test: as above
Method: as §1

[4] = molecular target: T3, Mouse Nectin-4 Protein, His Tag; test: as above
Method: as §1

[5] = molecular target: T4, Recombinant Rat Nectin-4 His-tag …; test: as above
Method: as §1

[6] = molecular target: T5, Recombinant Rat Nectin-4 His-tag Protein, CF (rat); test: as above
[7] = molecular target: Cynomolgus Nectin-4 Protein, His Tag (cynomolgus); test: as above

Kd [1]	koff [1]	kon [1]	EC50 [2]	EC50 [3]	EC50 [4]	EC50 [5]	EC50 [6]	EC50 [7]	Binder
5.08 nM	0.00425 s⁻¹	836000 M⁻¹ s⁻¹	0.00102 µg/mL	0.000832 µg/mL	2210 µg/mL	0.000942 µg/mL			humanized antibody SWY2001-Ab3 (antibody, human IgG1, kappa, V domains shown, Full-length IgG1, kappa) VH: QVQLVQSGAEVKKPGASVKVSCKASGYTFTSYYIHWVRQAPGQRLEWMGWIYPGNVNTKYNENFRDRVTITRDTSASTAYMELSSLRSEDTAVYYCARGIYYFDYWGQGTLVTVSS VL: AIQMTQSPSSLSASVGDRVTITCKASQSVNNDVAWYQQKPGKAPKLLIYYASNRDTGVPSRFSGSGSGTDFTLTISSLQPEDFATYFCHQDYSSPFTFGGGTKVEIKR
5.51 nM	0.00414 s⁻¹	752000 M⁻¹ s⁻¹	0.00113 µg/mL	0.000646 µg/mL	1050 µg/mL	0.000726 µg/mL			humanized antibody SWY2001-Ab2 (antibody, human IgG1, kappa, V domains shown, Full-length IgG1, kappa) VH: QVQLVQSGAEVKKPGASVKVSCKASGYTFTSYYIHWVRQAPGQRLEWMGWIYPGNVNTKYNENFRDRVTITRDTSASTAYMELSSLRSEDTAVYYCARGIYYFDYWGQGTLVTVSS VL: AIQMTQSPSSLSASVGDRVTITCKASQSVNNDVAWYQQKPGKAPKLLIYYASNRDTGVPSRFSGSGSGTDFTLTISSLQAEDLAVYFCHQDYSSPFTFGGGTKVEIKR
5.92 nM	0.00447 s⁻¹	756000 M⁻¹ s⁻¹	0.00121 µg/mL	0.000647 µg/mL		0.000857 µg/mL			humanized antibody SWY2001-Ab1 (antibody, human IgG1, kappa, V domains shown) VH: QVQLVQSGAEVKKPGASVKVSCKASGYTFTSYYIHWVRQAPGQRLEWMGWIYPGNVNTKYNENFRDRVTITRDTSASTAYMELSSLRSEDTAVYYCARGIYYFDYWGQGTLVTVSS VL: IIQMTQSPKFLSASVGDRVTITCKASQSVNNDVAWYQQKPGQSPKLLIYYASNRDTGVPDRFSGSGSGTDFTLTISSLQPEDFATYFCHQDYSSPFTFGGGTKVEIKR
2.8 nM	0.00181 s⁻¹	646000 M⁻¹ s⁻¹							Chimeric antibody (antibody, V domains shown, also called chimeric anti-Nectin-4 antibody; murine antibody variable regions on human IgG1) VH: QVQLQQSGPVLVKPGASVRISCKASGYTFTSYYIHWVKQRPGQGLEWIGWIYPGNVNTKYNENFRDKATLTADKSSSTSYMQLSSLTSEDSAVYFCARGIYYFDYWGQGTTLTVSS VL: IIVMTQTPKFLLVSAGDRVTITCKASQSVNNDVAWYQEKPGQSPKLLIYYASNRDTGVPDRFTGSGYGTDFTFTISTVQAEDLAVYFCHQDYSSPFTFGSGTKLEIK
			0.000877 µg/mL		0.0824 µg/mL		0.00101 µg/mL	0.000968 µg/mL	PADCEV (antibody, INN chains, looked up, V domains shown, vedotin (MMAE) payload) VH: EVQLVESGGGLVQPGGSLRLSCAASGFTFSSYNMNWVRQAPGKGLEWVSYISSSSSTIYYADSVKGRFTISRDNAKNSLSLQMNSLRDEDTAVYYCARAYYYGMDVWGQGTTVTVSS VL: DIQMTQSPSSVSASVGDRVTITCRASQGISGWLAWYQQKPGKAPKFLIYAASTLQSGVPSRFSGSGSGTDFTLTISSLQPEDFATYYCQQANSFPPTFGGGTKVEIKR
